Laboratory results: patent US20130195908A1

Columns and labels:
[1] = molecular target: Lyb-2.1 antigen expressed at the surface of B lymphocytes (mouse) (UniProt P21855); assay: cell-based or functional assay
[2] = molecular target: MHC class II molecule I-E^d expressed at the surface of A20 cells and mouse splenocytes (mouse) (UniProt P01904); assay: cell-based or functional assay
[3] = molecular target: MHC class II molecule I-E^d expressed at the surface of A20 cells and mouse splenocytes (mouse) (UniProt P01904); assay: flow cytometry on mouse splenocytes, 10 nM complex, B cells gated with anti-CD19-PE

UniProt P01904, sequence (P01904 26-255, chain 1 of 2): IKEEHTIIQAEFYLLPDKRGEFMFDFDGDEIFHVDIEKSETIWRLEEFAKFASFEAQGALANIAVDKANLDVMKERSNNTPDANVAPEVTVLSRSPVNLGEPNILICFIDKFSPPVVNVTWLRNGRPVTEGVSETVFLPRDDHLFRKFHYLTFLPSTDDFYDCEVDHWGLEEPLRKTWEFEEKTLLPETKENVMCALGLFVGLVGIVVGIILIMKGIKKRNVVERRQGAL
UniProt P01904, sequence (P01915 32-264, chain 2 of 2, further chain): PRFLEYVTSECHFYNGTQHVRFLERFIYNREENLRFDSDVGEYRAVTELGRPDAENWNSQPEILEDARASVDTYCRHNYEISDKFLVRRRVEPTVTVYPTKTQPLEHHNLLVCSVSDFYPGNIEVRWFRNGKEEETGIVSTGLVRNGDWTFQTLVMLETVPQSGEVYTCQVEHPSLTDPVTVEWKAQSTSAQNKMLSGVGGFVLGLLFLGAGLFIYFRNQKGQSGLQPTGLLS
UniProt P21855, sequence (P21855 whole entry): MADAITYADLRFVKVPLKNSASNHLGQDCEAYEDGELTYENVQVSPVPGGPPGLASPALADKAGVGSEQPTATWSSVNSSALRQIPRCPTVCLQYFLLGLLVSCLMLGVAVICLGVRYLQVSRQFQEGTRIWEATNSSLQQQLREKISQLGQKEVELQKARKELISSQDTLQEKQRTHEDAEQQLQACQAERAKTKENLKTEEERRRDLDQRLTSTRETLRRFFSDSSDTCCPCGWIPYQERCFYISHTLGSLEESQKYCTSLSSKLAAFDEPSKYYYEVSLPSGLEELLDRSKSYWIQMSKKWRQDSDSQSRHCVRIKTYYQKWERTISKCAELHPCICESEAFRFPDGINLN

Row | Substance | amount of ZZDTR-BD needed to reach the same level of T4B6 stimulation (IL-2 secretion), A20 cells as APCs, against free ZZDTR-BD [1] [times lower] | amount of ZZDTR-BD needed to reach the same level of T4B6 stimulation (IL-2 secretion), A20 cells as APCs, against free ZZDTR-BD [2] [times lower] | amount of ZZDTR-BD needed to reach the same level of T4B6 stimulation (IL-2 secretion), splenocytes as APCs, against free ZZDTR-BD [2] [times lower] | percent of B lymphocytes labeled [3] [%]
1 | 10-1.D.2/ZZDTR-BD complex (mouse monoclonal IgG2a 10-1.D.2, anti-Lyb-2.1, complexed with ZZDTR-BD) | 3.8 | – | – | –
2 | 14-4-4S/ZZDTR-BD complex (mouse monoclonal IgG2a 14-4-4S, anti-MHC class II I-E^d, complexed with ZZDTR-BD) | – | 13.4 | 5.2 | 68.5
